Assay results published in the supplement of paper PMC9170038.

How the values were obtained:
MS2 coat protein [1] = assay: apparent KD of MS2 coat protein, switch ON state; designed switch direction (-1 OFF switch, 1 ON switch): 1; higher = weaker reporter binding; conditions: FMN input: 0 or 200 uM; Eterna round: R93 (includes R88 designs)
How it was run: (§1)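 Apparent KD per design is the median of normalised cluster binding-curve fits. Designed RNA switches transcribed on-chip from Illumina sequencing clusters were titrated with SNAP-549-labelled MS2 coat protein in twofold steps from 0.7 or 1.5 nM to 3 µM, with 0.8–1.5 h down to 10–20 min per step. Buffer: 100 mM Tris-HCl pH 7.5, 80 mM KCl, 4 mM MgCl2, without or with constant ligand.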

MS2 coat protein [2] = assay: apparent KD of MS2 coat protein, switch OFF state (with FMN for OFF switches, without FMN for ON switches); designed switch direction (-1 OFF switch, 1 ON switch): 1; higher = weaker reporter binding; conditions: FMN input: 0 or 200 uM; Eterna round: R93 (includes R88 designs)
How it was run: as §1

Sequence | apparent KD of MS2 coat protein (MS2 coat protein [1]) [nM] | apparent KD of MS2 coat protein (MS2 coat protein [2]) [nM]
UACAGACAUGAGGAUCACCCAUGUAGAAUUAUGGGAGGAUAUACAAAGACGAGAGUCAGAGUAGAAGGCCUAGGAA [salish99-ss1-164] | 24 | 64.6
AAAAGACAUGAGGAUCACCCAUGUAAAAACAUGGGAGGAUAUGCAUGGAAAACAUGCUGUGCAGAAGGCUCAUGUC [SS1 - 18] | 40 | 25.5
UUUAAUUAUACGAAGGAUAUCGAUAAUAAGACAUGAGGAUCACCCAUGUAAUAUUUUUCCAUAUUCGAGAAGGUCGCGGGUGAAC [JR_SS002_Sub601] | 25 | 16.9
AAAAACACGGUGCAGGAUAUAUUAAUAGUCACAUGAGGAUCACCCAUGUUCAUUUAUAUGAACGAGUAGAAGGGCGGUGAAAAAA [Mat - Same state - Malcolm Mod - D112] | 172 | 148
AAUAUACAUGAGGAUCACCCAUGUUUUAAUAACUGAGGAUAUACGGGUGAAAACAGCAUAGUAGAAGGCAGAAAAA [SameState1 Malc#5] | 42.2 | 89.1
AGGAGACAUGAGGAUCACCCAUGUGAGAAGAGGCGAGGAUAUCGAAAGAAAGAAGAGAAACGAGAAGGCGCGAGCC [salish99-SS1-032] | 28.1 | 28.8
UAAAAACAUGAGGAUCACCCAUGUAGAAAUAUGGGAGGAUAUACGAAGACGAAAGUCAAAGUAGAAGGCCUAAAAU [Mat - Same State 1 - Eli mod - D104] | 21.8 | 58
AACAAACAUGAGGAUCACCCAUGUAAACAAACAUGAGGAUAUAUAACACAACAUCAACAGAUAGAAGGCAUAAAUA [JR_SS001_Sub1202] | 92.1 | 84.8
AGCCAACAUGAGGAUCACCCAUGUCAAACAAGUCAAGGAUAUGGGCCUCUAAAAGGAGUACCAGAAGGUGAGAAAU [Vequatge] | 123 | 52.6
AAAAUAAAAAGGUAGGAUAUGGGUAAAACUACAUGAGGAUCACCCAUGUAAUAAAAAGAAAAAAACCAGAAGGACCAAAAUAAAA [72%, More Wateronthemoon, 8] | 13.2 | 34.7
AAUAUACAUGAGGAUCACCCAUGUUUUAAUAGUUGAGGAUAUACGGGUGAAAAUAGCAUAGUAGAAGGCGAGUGUA [SameState1 Malc#12] | 146 | 106
AAAAAACAUGAGGAUCACCCAUGUCGAAAGACGUGAGGAUAUGUACAGACUUCGGUCUGUACAGAAGGCACGUAAA [SS1 - 1040] | 14.3 | 33.8
GAAAAACAUGAGGAUCACCCAUGUAGAAAUAUGGGAGGAUAUACAAAGACGUAAGUCAAAGUAGAAGGCCUAAAAG [Mat - Same State 1 - Eli mod - D8] | 19.1 | 76.9
AACAGACAUGAGGAUCACCCAUGUAGAAUUAUGGGAGGAUAUACAAAGACGAGAGUCAGAGUAGAAGGCCUAGGAG [salish99-ss1-162] | 22.1 | 44.3
AAGACACAUGAGGAUCACCCAUGUCAAGAGAGAUGAGGAUAUCUGAGUUAGUUAAGUUAAGGAGAAGGCAUGAAAA [LROPPY Same State 1 - v01_deltaG=3.81] | 31 | 59.4
ACAAAGCUACACUAGGAUAUGGGUGUCUAAACAUGAGGAUCACCCAUGUGAUGGCAAAACAAAGCUCAGAAGGAGUCGUAGCCCA [Bientevece] | 15 | 34.9
ACAAACAAAAAAGAGGAUAUCCUAAAUAAAACAUGAGGAUCACCCAUGUAAAAAAUAAUAAAAUGGGAGAAGGCUUACAACAAAC [SS2 M 24] | 15.6 | 21
AAGAAACAUGAGGAUCACCCAUGUAAGAAUAUGGGAGGAUAUACAAGGACAAGAGUCAAGGUAGAAGGCCUAAGAA [Mat - Same State 1 - Meechl mod - D143] | 33 | 118
AGGAAACAUGAGGAUCACCCAUGUAAAGAAGGGUGAGGAUAUACAAAGAAAAGAAAGAAAGUAGAAGGCACAAAAG [Mongoose] | 233 | 113
AGAAGGUGGGUCGAGGAUAUCAGGCACGCCACAUGAGGAUCACCCAUGUUUUUGGCACCGCCCAAUGAGAAGGUGAACACCUUCA [Cesobe] | 9.34 | 12.4
AAUACACAUAGUCAGGAUAUCAAAACUAAGACAUGAGGAUCACCCAUGUAAUAAGUAAAAGUAAAUGAGAAGGGACAGGGUGACC [JR_SS002_Sub404] | 130 | 63.9
